Laboratory results taken from US20210130452A1 (Merck KGaA, published 2021).

Key:
[1] = molecular target: T1, human IL-17A (human, UniProt Q16552 24-155); experiment: AlphaScreen hIL-17A-IL-17RA; vs IL17MS13B03
T1 construct: secreted form made in Hek293 cells (GenBank U32659); also called hIL-17A; hIL17A
T1 sequence (Q16552 other isoform, or with tags, fused parts or gaps): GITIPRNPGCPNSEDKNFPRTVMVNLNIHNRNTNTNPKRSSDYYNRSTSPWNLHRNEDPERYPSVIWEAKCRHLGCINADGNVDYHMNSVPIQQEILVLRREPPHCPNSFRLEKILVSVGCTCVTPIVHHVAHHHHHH

[2] = molecular target: T2, human IL-17A/F heterodimer (human, UniProt Q16552 24-155; Q96PD4 31-163, limits assumed); experiment: SPR (Biacore) off-rate
T2 construct: bought, made in E. coli (R&D Systems 5194-IL/CF); also called hIL-17A/F; hIL17A/F
T2 sequence (Q16552 24-155 limits assumed, chain 1 of 2, one chain of several): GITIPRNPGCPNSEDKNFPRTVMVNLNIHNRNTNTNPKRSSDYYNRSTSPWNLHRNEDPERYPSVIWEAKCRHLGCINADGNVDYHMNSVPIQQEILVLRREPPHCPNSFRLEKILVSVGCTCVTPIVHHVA

[3] = molecular target: T3, human IL-17F (human, UniProt Q96PD4 31-163); experiment: SPR (Biacore) off-rate
T3 construct: made in Hek293 cells (GenBank AF384857); also called hIL-17F; hIL17F
T3 sequence: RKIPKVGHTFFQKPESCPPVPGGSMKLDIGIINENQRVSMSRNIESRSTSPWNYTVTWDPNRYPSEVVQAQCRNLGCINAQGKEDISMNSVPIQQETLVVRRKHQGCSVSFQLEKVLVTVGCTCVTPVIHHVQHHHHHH

[4] = molecular target: T1, human IL-17A; experiment: SPR (Biacore) off-rate
[5] = molecular target: T3, human IL-17F; experiment: AlphaScreen hIL-17F-IL-17RC; vs IL17MS13B03
[6] = molecular target: T3, human IL-17F; experiment: AlphaScreen IL-17F-IL-17RC; vs IL17MS16A04
[7] = molecular target: T4, human IL-17A (human, UniProt Q16552 24-155); experiment: SPR
T4 construct: secreted form (GenBank U32659) expressed in Hek293 with C-terminal 6-His; also called hIL-17A; IL-17A-6HIS
T4 sequence (Q16552 other isoform, or with tags, fused parts or gaps): as the sequence (Q16552 other isoform, or with tags, fused parts or gaps) above

[8] = molecular target: T5, human IL-17A/F heterodimer (human, UniProt Q16552 24-155; Q96PD4 31-163, limits assumed); experiment: SPR
T5 construct: produced in E. coli, bought from R&D Systems (Cat 5194-IL/CF); also called hIL-17A/F
T5 sequence (Q16552 24-155 limits assumed, chain 1 of 2, one chain of several): as the sequence (Q16552 24-155 limits assumed, chain 1 of 2, one chain of several) above

[9] = molecular target: T4, human IL-17A; experiment: AlphaScreen IL-17A-IL-17RA, average
[10] = molecular target: T4, human IL-17A; experiment: SPR, IL-17A-Nanobody complex over captured IL-17RA
Description: (§1) The receptor (IL-17RA or IL-17RC) was captured via its human Fc-tail by an anti-human IgG-Fc antibody coated on the chip.

[11] = molecular target: T6, rat IL-17F (rat, UniProt Q5BJ95 29-161); experiment: ELISA, coated IL-17F;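 note: binding ELISA on coated antigen from various species, with bound Nanobodies revealed by an HRP-linked anti-myc antibody and esTMB substrate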
T6 sequence (looked up): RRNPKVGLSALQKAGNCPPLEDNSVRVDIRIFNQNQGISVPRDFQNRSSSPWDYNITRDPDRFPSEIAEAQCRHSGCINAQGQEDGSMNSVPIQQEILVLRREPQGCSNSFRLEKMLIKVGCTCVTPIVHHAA
Protocol: (§2) Binding of a selected panel of anti-IL-17 Nanobodies to IL-17 of other species was assessed using a binding ELISA. […] HRP (horseradish peroxidase) conjugated anti-myc (Serotec, MCA 2200P) was used for detection using esTMB as substrate.

[12] = molecular target: T7, human IL-17F (human, UniProt Q96PD4 31-163); experiment: ELISA, coated IL-17F;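 note: binding ELISA on coated antigen from various species, with bound Nanobodies revealed by an HRP-linked anti-myc antibody and esTMB substrate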
T7 construct: GenBank AF384857, expressed in Hek293 as 6-His C-terminal tagged protein; also called hIL-17F; IL-17F-6HIS
T7 sequence: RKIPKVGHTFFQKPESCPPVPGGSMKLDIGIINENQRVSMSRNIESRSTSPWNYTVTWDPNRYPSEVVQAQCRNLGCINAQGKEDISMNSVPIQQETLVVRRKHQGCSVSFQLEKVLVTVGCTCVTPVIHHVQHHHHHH
Protocol: as §2

[13] = molecular target: T8, mouse IL-17F (mouse, UniProt Q7TNI7 29-161); experiment: ELISA, coated IL-17F;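 note: binding ELISA on coated antigen from various species, with bound Nanobodies revealed by an HRP-linked anti-myc antibody and esTMB substrate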
T8 sequence (looked up): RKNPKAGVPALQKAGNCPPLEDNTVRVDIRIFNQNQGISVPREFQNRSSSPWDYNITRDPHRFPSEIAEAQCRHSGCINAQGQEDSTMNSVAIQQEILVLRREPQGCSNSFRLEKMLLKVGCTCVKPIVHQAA
Protocol: as §2

[14] = molecular target: T4, human IL-17A; experiment: ELISA, coated IL-17A
Protocol: as §2

[15] = molecular target: T9, marmoset IL-17A (marmoset, IL-17A is a disulfide-linked homodimer. One chain is given.); experiment: ELISA, coated IL-17A
T9 chain: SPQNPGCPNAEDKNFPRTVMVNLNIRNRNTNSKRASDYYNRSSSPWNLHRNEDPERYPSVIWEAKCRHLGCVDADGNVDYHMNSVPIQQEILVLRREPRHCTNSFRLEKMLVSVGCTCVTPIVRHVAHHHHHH
Protocol: as §2

[16] = molecular target: T10, rat IL-17A (rat, UniProt Q61453 18-150, limits assumed); experiment: ELISA, coated IL-17A
T10 sequence (looked up): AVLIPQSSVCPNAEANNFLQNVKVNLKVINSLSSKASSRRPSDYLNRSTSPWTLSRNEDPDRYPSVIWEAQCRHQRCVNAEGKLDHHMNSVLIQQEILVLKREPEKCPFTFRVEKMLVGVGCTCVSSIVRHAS
Protocol: as §2

[17] = molecular target: T11, mouse IL-17A (mouse, UniProt Q62386 26-158); experiment: ELISA, coated IL-17A
T11 sequence (looked up): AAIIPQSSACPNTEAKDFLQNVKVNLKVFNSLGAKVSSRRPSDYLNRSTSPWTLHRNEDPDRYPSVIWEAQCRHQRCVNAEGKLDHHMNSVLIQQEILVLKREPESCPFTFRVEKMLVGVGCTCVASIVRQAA
Protocol: as §2

[18] = molecular target: guinea pig IL-17A (guinea pig); experiment: ELISA, coated IL-17A
Protocol: as §2

[19] = molecular target: T7, human IL-17F; experiment: SPR, IL-17F-Nanobody complex over captured IL-17RC
Description: as §1

B1: IL17MS3047 (VHH)
VHH: EVQLVESGGGLVQPGGSLRLSCAASGRANSINWFGWFRQAPGKEREFVAGIRWSDAYTEYAASVKGRFTISRDNSKNTVYLQMNSLRPEDTAVYYCVLDLSTVRYWGQGTLVTVSS
notes: variant of IL17MS13B03; Kabat numbering
IC50 fold difference compared to WT [1]: 1.1 fold
koff [2]: 0.000538 s⁻¹
koff [3]: 0.00348 s⁻¹
koff [4]: 0.000252 s⁻¹
IC50 fold difference compared to WT [5]: 0.7 fold

B2: IL17MS3051 (VHH)
VHH: EVQLVESGGGSVQAGDSLRLSCAASGRAFSINWFGWFRQTPGKEREFVAGIRWSDAYTEYANSVKGRFTISRDNAKNTVDLQMDSLKPEDTAVYYCVLDLSTVRYWGQGTQVTVSS
notes: as for B1
IC50 fold difference compared to WT [1]: 1.4 fold
koff [2]: 0.000396 s⁻¹
koff [3]: 0.00216 s⁻¹
koff [4]: 0.000205 s⁻¹
IC50 fold difference compared to WT [5]: 0.4 fold

B3: IL17MS3052 (VHH)
VHH: EVQLVESGGGSVQAGDSLRLSCAASGRASSINWFGWFRQTPGKEREFVAGIRWSDAYTEYANSVKGRFTISRDNAKNTVDLQMDSLKPEDTAVYYCVLDLSTVRYWGQGTQVTVSS
notes: as for B1
IC50 fold difference compared to WT [1]: 0.9 fold
koff [2]: 0.000518 s⁻¹
koff [3]: 0.00439 s⁻¹
koff [4]: 0.000289 s⁻¹
IC50 fold difference compared to WT [5]: 0.5 fold

B4: IL17MS3053 (VHH)
VHH: EVQLVESGGGSVQAGDSLRLSCAASGRANTINWFGWFRQTPGKEREFVAGIRWSDAYTEYANSVKGRFTISRDNAKNTVDLQMDSLKPEDTAVYYCVLDLSTVRYWGQGTQVTVSS
notes: as for B1
IC50 fold difference compared to WT [1]: 1.3 fold
koff [2]: 0.00052 s⁻¹
koff [3]: 0.00982 s⁻¹
koff [4]: 0.000258 s⁻¹
IC50 fold difference compared to WT [5]: 1.2 fold

B5: IL17MS3059 (VHH)
VHH: DVQLVESGGGLVQPGGSLRLSCAASGRTFSSYVVGWFRQAPGKEREFVGAISGSGESIYYAVSEKGRFTISRDNSKNTLYLQMNSLRPEDTAVYYCTADQEFGYLRFGRSEYWGQGTLVTVSS
notes: variant of IL17MS16A04; Kabat numbering
IC50 fold difference vs WT [6]: 6.7 fold

B6: IL17MS3062 (VHH)
VHH: EVQLVESGGGLVQPGGSLRLSCAASGRTFSSYVVGWFRQAPGKEREFVGAISGSGESIYYAVSEKGRFTISRDNSKNTLYLQMNSLRPEDTAVYYCTADQEFGYLRFGRSEYWGQGTLVTVSS
notes: as for B5
IC50 fold difference vs WT [6]: 7.4 fold

B7: IL17MS3064 (VHH)
VHH: DVQLVESGGGLVQPGGSLRLSCAASGRTFSSYVVGWFRQAPGKEREFVGAISGSGDTIYYAVSEKGRFTISRDNSKNTLYLQMNSLRPEDTAVYYCTADQEFGYLRFGRSEYWGQGTLVTVSS
notes: as for B5
IC50 fold difference vs WT [6]: 30.3 fold

B8: IL17MS3065 (VHH)
VHH: DVQLVESGGGLVQPGGSLRLSCAASGRTFSSYVVGWFRQAPGKEREFIGAISGSGDTIYYAVSEKGRFTISRDNSKNTLYLQMNSLRPEDTAVYYCTADQEFGYLRFGRSEYWGQGTLVTVSS
notes: as for B5
IC50 fold difference vs WT [6]: 12.7 fold

B9: IL17MS3010 (VHH, name in Kabat numbering)
VHH: EVQLVESGGGLVQPGGSQRLSCTASGTIVNIHVMGWYRQAPGKQRELVALIFSGGSADYADSVKGRFTISRDNSKNTVYLQMNSLRAEDTAVYYCAAEIGYYSGGTYYSSEAHWGQGTLVTVSS
notes: also called IL17MS3010 basic
koff [7]: 0.00013 s⁻¹
koff [8]: 0.000217 s⁻¹
IC50 [9]: 184 pM

B10: IL17MS3011 (VHH, name in Kabat numbering)
VHH: EVQLVESGGGLVQPGGSLRLSCTASGTIVNIHVMGWYRQAPGKQRELVALIFSGGSADYADSVKGRFTISRDNSKNTVYLQMNSLRAEDTAVYYCAAEIGYYSGGTYYSSEAHWGQGTLVTVSS
notes: basic + Q18L; Kabat positions
koff [7]: 0.000132 s⁻¹
koff [8]: 0.000223 s⁻¹
IC50 [9]: 139 pM

B11: IL17MS3012 (VHH, name in Kabat numbering)
VHH: EVQLVESGGGLVQPGGSQRLSCAASGTIVNIHVMGWYRQAPGKQRELVALIFSGGSADYADSVKGRFTISRDNSKNTVYLQMNSLRAEDTAVYYCAAEIGYYSGGTYYSSEAHWGQGTLVTVSS
notes: basic + T23A; Kabat positions
koff [7]: 0.000137 s⁻¹
koff [8]: 0.000228 s⁻¹
IC50 [9]: 101 pM

B12: IL17MS3013 (VHH, name in Kabat numbering)
VHH: EVQLVESGGGLVQPGGSQRLSCTASGTIVNIHVMGWYRQAPGKQRELVALIFSGGSADYADSVKGRFTISRDNSKNTVYLQMNSLRPEDTAVYYCAAEIGYYSGGTYYSSEAHWGQGTLVTVSS
notes: basic + A84P; Kabat positions
koff [7]: 0.000116 s⁻¹
koff [8]: 0.000185 s⁻¹
IC50 [9]: 81 pM

B13: IL17MS3017 (VHH, name in Kabat numbering)
VHH: EVQLVESGGGLVQPGGSLRLSCAASGTIVNIHVMGWYRQAPGKQRELVALIFSGGSADYADSVKGRFTISRDNSKNTVYLQMNSLRPEDTAVYYCAAEIGYYSGGTYYSSEAHWGQGTLVTVSS
notes: basic + Q18L, T23A, A84P; Kabat positions
koff [7]: 0.000144 s⁻¹
koff [8]: 0.000242 s⁻¹
IC50 [9]: 163 pM

B14: 17C01 (VHH)
VHH: EVQLVESGGRLVQAGGSLRLPCAASGRTFTSYPMGWFRQAPGKEREFVAAISMSGDDAAYADFVRGRFTISRDDARNTVYLHMTSLKPEDTAVYYCAARTSYDGTYDYIDDYSYWGQGTQVTVSS
notes: Class 4
% Biacore binding (IL-17A-NB)-IL-17RA [10]: -2.01%
OD [11]: 0.0025 OD
OD [12]: 0.772 OD
OD [13]: -0.0005 OD
OD [14]: 1.83 OD
OD [15]: 1.84 OD
OD [16]: 0 OD
OD [17]: -0.001 OD
OD [18]: 0.007 OD
% Biacore binding (IL-17F-NB)-IL-17RC [19]: 32.5%
